Source: doi:10.1101/2025.05.16.654433
Numbering of substitutions follows the chain as printed. Names may count otherwise. Values belong to the binder of their own block, whether it stands above or below them.

Target: T1, GSP-2 (C. elegans PP1 homolog), as found in the MudPIT immunoprecipitations, P48727
T1 chain: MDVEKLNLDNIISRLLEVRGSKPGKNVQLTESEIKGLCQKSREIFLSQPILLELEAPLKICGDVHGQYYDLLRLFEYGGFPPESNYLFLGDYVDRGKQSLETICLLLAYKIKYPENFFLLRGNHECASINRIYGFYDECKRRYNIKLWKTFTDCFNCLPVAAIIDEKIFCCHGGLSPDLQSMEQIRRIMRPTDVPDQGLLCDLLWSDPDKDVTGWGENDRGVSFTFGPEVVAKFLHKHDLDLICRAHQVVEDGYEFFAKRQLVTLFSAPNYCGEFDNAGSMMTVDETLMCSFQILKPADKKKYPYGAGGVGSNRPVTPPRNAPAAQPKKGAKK
Experiment: MudPIT analysis of 3xflag immunoprecipitations
Settings: chain shown with the change, whole-worm lysates, parent: 10.79

response (% of total protein) (bait recovered in same sample 0.12 (mutant) vs 0.54 (wild type) % of total protein): 0.87
B1: APE-1 (C. elegans ASPP homolog), 3xflag-tagged, as in the MudPIT immunoprecipitations, Q9XVN3 H591Y (protein)
chain: MVTTSSGGGIGYPANNGVTQVSLIHSSDSVRTVSTAPIYRPTSSMASTMAHKSSTAPFISANQRMSKPPVRVVAQPPPPHPQALSQQYHQQNPMMMYSAPNTRPHVIPTMQVQPTMAAQIKRNNPVNAQFQNPSEMIADYGVKPQSVEMVQRVRAVRRQVADEETELRRLRELEHETAQLQNKNYGRERELNVQGSMLKEAQLELRNASMRAQSLNKHLEEMYRRRQTAAAAALVEQRKMQQHQILLARAANQVSTQEVIRPRASVEPFQVNNTQQQQPSPQMMKSEEFSEKRDLNGQTGSYDAIDGSGDHQKIPTEPSYLAPCKENQQKYSELSKMASTDPHSNHSSPSTSSQKAPTLITFSPPSFEQKINSSTMTRDSPFVERPTSFGDSLDESRLRSGKTDLVSLRSDSLKATKRRSWAASEGTSMSEAEMIHRLLDEQRRGRSHFIPQLPTSQEEPSAITSETYAEEVVNSESKQVATSSDSTNNLELPTEQMVLGSDTTTEEDASSCSTRSDDGQNLEMEVAIERRTVKGILRRPNEKMNKGRIEFDPLALLLDAALEGELDLVRSSASKLTDVSQANDEGITALYNAICAGHYEIVRFLIENDADVNAQDSDGWTPLHCAASCNNLPMVRQLVEGGGCVLASTLSDMETPVEKCEEDEDGYDGCLKYLSAAHNSTGSINTGKVYAAYGYEAAFEDELSFDAGDELTVIEKDKVDKNWWTCEKNNGEKGQVPRTYLALYPSLKYRKKLNFVMFDLPLESNNNVE

response (% of total protein) (bait recovered in same sample 0.22 (mutant) vs 0.54 (wild type) % of total protein): 0.87
B2: APE-1 (C. elegans ASPP homolog), 3xflag-tagged, as in the MudPIT immunoprecipitations, Q9XVN3 N583K (protein)
chain: B1 chain with N583K, Y591H
